Ten molecules from article PMC13530268 can be followed below.

Like-named read-outs stand apart in the source and are kept apart here.

Series [1] deals with ALX4 homeodomain protein (amino acids 209-274) (human) (UniProt Q9H161). Nature of the series: native gel or EMSA. In general terms: Mobility shift assays separate free from complexed probe on a gel.
The target in series [2] is OTP homeodomain protein (amino acids 99-164) (human) (UniProt Q5XKR4). Nature of the series: native gel or EMSA.
Series [3] concerns the target PHOX2B Q46R homeodomain protein (human). As to the kind of experiment: native gel or EMSA.
Series [4] concerns the target PITX3 homeodomain protein (66 amino acid region) (human). As to the kind of experiment: native gel or EMSA.
The target in series [5] is PHOX2B Q46K homeodomain protein (human). As to the kind of experiment: native gel or EMSA.
In series [6] the target is T1, CRX HD E4N;K50Q (Homo sapiens, UniProt O43186 34-99, E42N;K88Q). Nature of the series: EMSA.
Series [7] concerns the target T2, CRX HD K50Q (Homo sapiens, UniProt O43186 34-99, K88Q). Nature of the series: EMSA.
For another series, the target named is CRX HD R3Q (Homo sapiens, UniProt O43186 34-99, R41Q). As to the kind of experiment: EMSA.
The target of series [8] is T3, CRX HD R2Q (Homo sapiens, UniProt O43186 34-99, R40Q). As to the kind of experiment: EMSA.
The target in a further series is CRX HD E4K (Homo sapiens, UniProt O43186 34-99, E42K). Nature of the series: EMSA.
Series [9] has as its target T1, CRX HD E4N;K50Q. Nature of the series: EMSA. The source holds these as a separate data set.
Series [10] concerns the target T4, CRX HD (Homo sapiens, UniProt O43186 34-99). As to the kind of experiment: EMSA.
The target of series [11] is T2, CRX HD K50Q. Nature of the series: EMSA. The source holds these as a separate data set.
The target of series [12] is T3, CRX HD R2Q. As to the kind of experiment: EMSA. This is another data set of the same source.
A further series concerns the target CRX HD E4N (Homo sapiens, UniProt O43186 34-99, E42N). Nature of the series: EMSA.
The next series has as its target ARX HD P26L (Mus musculus, UniProt O35085 326-390, P355L). Nature of the series: EMSA.
Another series has as its target PHOX2B HD R44G (Homo sapiens, UniProt Q99453 94-158, R141G). As to the kind of experiment: EMSA.
For series [13], the target named is T4, CRX HD. Nature of the series: EMSA. This is another data set of the same source.

T1 sequence (O43186 34-99 E42N/K88Q): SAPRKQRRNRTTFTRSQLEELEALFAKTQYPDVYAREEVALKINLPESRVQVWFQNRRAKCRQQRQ
T2 sequence (O43186 34-99 K88Q): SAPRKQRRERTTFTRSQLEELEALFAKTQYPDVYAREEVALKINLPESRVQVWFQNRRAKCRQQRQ
T3 sequence (O43186 34-99 R40Q): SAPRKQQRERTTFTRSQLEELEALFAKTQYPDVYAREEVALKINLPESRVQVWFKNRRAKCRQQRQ
T4 sequence (O43186 34-99): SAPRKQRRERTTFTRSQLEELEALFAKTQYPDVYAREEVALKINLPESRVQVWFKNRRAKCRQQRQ
Sequence of CRX HD E4K (O43186 34-99 E42K): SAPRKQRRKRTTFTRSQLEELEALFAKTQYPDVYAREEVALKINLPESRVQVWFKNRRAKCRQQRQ
Sequence of PHOX2B HD R44G (Q99453 94-158 R141G): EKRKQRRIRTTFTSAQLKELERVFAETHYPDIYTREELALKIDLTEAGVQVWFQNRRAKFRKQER
Sequence of CRX HD R3Q (O43186 34-99 R41Q): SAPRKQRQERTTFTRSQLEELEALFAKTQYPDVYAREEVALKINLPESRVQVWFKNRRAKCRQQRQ
Sequence of CRX HD E4N (O43186 34-99 E42N): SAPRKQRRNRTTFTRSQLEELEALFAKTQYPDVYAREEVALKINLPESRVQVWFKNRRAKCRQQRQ
Sequence of ARX HD P26L (O35085 326-390 P355L): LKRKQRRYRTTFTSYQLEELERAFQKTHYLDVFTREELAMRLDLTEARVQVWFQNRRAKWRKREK

In series [1], “ALX4 homeodomain protein (amino acids 209-274) (from UniProt Q9H161 209-274) (domain or fragment)” showed a Tau with P4Q DNA of 0.792.
With “OTP homeodomain protein (amino acids 99-164) (from UniProt Q5XKR4 99-164) (domain or fragment)”, the Tau with P4Q DNA in series [2] was found to be 0.29.
For “PHOX2B Q46R homeodomain protein (domain or fragment)”, in [3], the Tau with P3Q DNA came out at 1.27.
In turn, “PITX3 homeodomain protein (66 amino acid region) (domain or fragment)” registered a Tau with P3K DNA in series [4] of 0.157.
In series [5], “PHOX2B Q46K homeodomain protein (domain or fragment)” displayed a Tau with P3Q DNA of 0.9.

B1: Q50 monomer (TAATTA) (dsDNA)
DNA 1: CGGGCTAATTAGGCCTAGTGCGGGCGTGGCT
DNA 2: AGCCACGCCCGCACTAGGCCTAATTAGCCCG
On to B1, for which the binding result with CRX HD E4N;K50Q [6] and in the series with CRX HD K50Q [7] was “binds” throughout.

B2: K50 monomer (TAATCC) (dsDNA)
DNA 1: CGGGCTAATCCGGCCTAGTGCGGGCGTGGCT
DNA 2: AGCCACGCCCGCACTAGGCCGGATTAGCCCG
As for B2, the binding result with CRX HD R3Q, with CRX HD R2Q [8] and in the series with CRX HD E4K was “binds” in each case.

B3: P3K (dsDNA)
DNA 1: TGTGTCTTAATCCGATTAACGCACTTGATAGTGCGGGCGTGGCT
DNA 2: AGCCACGCCCGCACTATCAAGTGCGTTAATCGGATTAAGACACA
For the molecule B3, the binding signal in the series with CRX HD E4N;K50Q [9] was determined as 395 ± 90.1 Tau; in the series with CRX HD [10], 8.94 ± 1.78 Tau; in the series with CRX HD K50Q [11], 340 ± 161 Tau. Moreover, the binding result with CRX HD R2Q [12] and with CRX HD E4N was “binds” in each case.

B4: P3Q (dsDNA)
DNA 1: TGTGTCTTAATTAGATTAACGCACTTGATAGTGCGGGCGTGGCT
DNA 2: AGCCACGCCCGCACTATCAAGTGCGTTAATCTAATTAAGACACA
For the molecule B4, the binding signal with CRX HD E4N;K50Q [9] was 112 ± 12.1 Tau; with CRX HD K50Q [11], 54.6 ± 2.72 Tau; with ARX HD P26L it was ~10 fold decrease in Tau vs WT. In the series with PHOX2B HD R44G, the binding result is given as “no binding”.

B5: P4K (dsDNA)
DNA 1: TGTGTCTTAATCCGGATTAACGCACTTGATAGTGCGGGCGTGGCT
DNA 2: AGCCACGCCCGCACTATCAAGTGCGTTAATCCGGATTAAGACACA
B5: the binding result with CRX HD [13] is “binds”.
